T1: fHbp m002419 (Neisseria meningitidis fHbp v3.28, …, chimera)
T1 chain: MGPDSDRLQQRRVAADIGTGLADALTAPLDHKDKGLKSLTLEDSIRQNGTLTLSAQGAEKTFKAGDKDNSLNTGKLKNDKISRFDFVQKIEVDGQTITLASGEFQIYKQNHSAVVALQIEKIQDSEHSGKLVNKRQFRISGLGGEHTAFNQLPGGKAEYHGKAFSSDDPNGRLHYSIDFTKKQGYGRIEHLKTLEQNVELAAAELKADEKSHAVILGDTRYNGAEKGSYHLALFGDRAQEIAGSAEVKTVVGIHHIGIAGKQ

T2: fHbp m001199 (Neisseria meningitidis fHbp v3.28-based …, point mutant)
T2 chain: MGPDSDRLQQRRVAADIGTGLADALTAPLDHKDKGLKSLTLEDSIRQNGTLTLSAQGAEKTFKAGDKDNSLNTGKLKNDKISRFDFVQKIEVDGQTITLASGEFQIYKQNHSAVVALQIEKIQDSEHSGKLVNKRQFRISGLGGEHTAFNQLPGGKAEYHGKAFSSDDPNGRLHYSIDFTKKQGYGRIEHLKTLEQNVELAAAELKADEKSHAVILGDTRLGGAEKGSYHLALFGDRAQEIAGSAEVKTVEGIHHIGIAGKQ

T3: fHbp m001118 (Neisseria meningitidis fHbp v3.28-based …, point mutant)
T3 chain: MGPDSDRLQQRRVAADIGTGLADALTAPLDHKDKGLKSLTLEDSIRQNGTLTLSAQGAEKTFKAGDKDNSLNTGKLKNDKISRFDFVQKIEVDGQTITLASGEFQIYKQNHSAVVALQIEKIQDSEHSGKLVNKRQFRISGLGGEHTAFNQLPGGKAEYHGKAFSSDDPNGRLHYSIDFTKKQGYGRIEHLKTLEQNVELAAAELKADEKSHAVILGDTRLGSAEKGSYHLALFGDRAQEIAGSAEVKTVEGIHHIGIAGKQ

T4: fHbp m001039 (Neisseria meningitidis fHbp v3.28, …, point mutant)
T4 chain: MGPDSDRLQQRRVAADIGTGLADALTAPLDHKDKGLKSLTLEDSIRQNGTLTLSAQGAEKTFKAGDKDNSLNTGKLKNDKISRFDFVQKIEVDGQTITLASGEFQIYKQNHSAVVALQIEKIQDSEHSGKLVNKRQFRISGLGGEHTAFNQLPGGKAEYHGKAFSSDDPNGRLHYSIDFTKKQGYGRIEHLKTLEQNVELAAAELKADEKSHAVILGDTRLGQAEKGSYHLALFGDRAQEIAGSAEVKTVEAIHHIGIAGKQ

T5: fHbp m002336 (Neisseria meningitidis fHbp v3.28, …, chimera)
T5 chain: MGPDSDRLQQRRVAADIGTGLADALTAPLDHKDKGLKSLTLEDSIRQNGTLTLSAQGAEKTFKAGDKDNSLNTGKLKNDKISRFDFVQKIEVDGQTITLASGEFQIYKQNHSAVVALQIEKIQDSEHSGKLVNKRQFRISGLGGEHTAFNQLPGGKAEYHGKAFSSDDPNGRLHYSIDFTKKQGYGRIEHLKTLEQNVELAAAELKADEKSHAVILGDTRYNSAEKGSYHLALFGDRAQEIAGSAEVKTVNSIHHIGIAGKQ

T6: fHbp m001688 (Neisseria meningitidis, engineered fHbp …, point mutant)
T6 chain: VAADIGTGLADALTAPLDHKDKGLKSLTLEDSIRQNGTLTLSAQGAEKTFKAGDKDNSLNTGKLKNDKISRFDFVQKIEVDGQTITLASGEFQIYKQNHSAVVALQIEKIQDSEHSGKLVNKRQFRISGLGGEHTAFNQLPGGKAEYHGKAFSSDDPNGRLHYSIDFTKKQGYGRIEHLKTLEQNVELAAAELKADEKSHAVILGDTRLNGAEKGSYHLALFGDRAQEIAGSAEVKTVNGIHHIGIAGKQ

T7: fHbp m001497 (Neisseria meningitidis, fHbp …, point mutant)
T7 chain: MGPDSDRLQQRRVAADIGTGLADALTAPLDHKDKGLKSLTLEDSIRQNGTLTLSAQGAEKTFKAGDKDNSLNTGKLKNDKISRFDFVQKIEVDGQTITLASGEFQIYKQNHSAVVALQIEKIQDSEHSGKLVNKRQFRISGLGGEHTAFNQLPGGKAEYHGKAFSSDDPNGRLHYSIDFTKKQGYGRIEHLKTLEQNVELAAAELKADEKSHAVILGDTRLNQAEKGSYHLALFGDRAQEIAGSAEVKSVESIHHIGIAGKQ

T8: fHbp m001037 (Neisseria meningitidis fHbp v3.28, …, point mutant)
T8 chain: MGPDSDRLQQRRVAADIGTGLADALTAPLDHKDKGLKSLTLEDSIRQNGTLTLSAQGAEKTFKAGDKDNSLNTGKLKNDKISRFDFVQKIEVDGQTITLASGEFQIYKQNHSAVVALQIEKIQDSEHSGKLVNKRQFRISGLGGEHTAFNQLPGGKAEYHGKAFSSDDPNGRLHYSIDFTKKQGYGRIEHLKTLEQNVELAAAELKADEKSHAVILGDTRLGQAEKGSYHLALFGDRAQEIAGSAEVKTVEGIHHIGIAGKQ

T9: fHbp m001672 (Neisseria meningitidis, fHbp …, point mutant)
T9 chain: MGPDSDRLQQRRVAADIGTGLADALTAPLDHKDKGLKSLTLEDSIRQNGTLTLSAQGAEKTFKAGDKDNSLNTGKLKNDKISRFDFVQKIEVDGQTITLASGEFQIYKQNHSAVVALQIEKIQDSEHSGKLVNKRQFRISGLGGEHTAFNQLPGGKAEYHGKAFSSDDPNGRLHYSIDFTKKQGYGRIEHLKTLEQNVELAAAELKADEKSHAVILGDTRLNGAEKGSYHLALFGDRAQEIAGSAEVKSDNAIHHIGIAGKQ

B1: mAb 1E6 (human) (antibody, V domains shown)
VH: EVQLVQSGAEVKKPGSSVKVSCKASGGTVIDYPITWVRQAPGQGLEWVGGFVPLFRTSNYGQKFQGRVTITADKSTSTASMELNSLTSEDTAIYYCARGDTAMGPFDYWGQGTLVTVSS
VL: SYVLTQPPSLSVAPGKTATLTCGGNNIAGKTVHWYQQRPGQAPVLVISYDSDRPSGIPERFSGSNSANTATLTISRVEAGDEADYYCQVWDRNSDHWVFGGGTKLTVL
notes: source: Expi293, purified (MabSelect SuRe, SEC); copies: 2 + 2
B2: chimeric antibody h12C1 (antibody, V domains shown)
VH: QVQLQESGPELVKPGASVKISCKASGYSFSDYNMSWVKQSNGKSLEWIGIIDPKYGTINYNQKFKGKATLTVDQASSTAYMQLNSLTSEDSAVYYCVRDYYGSSYFDYWGQGTTLTVSS
VL: DIVLTQSPSSIYASLGERVTLTCKASQDIHNYLNWFQQKPGKSPKTLIYRANRLVDGVPSRFSGGGSGQDYSLTISSLEFEDIGIYYCLQYDEFPPTFGGGTRLEIK
notes: also called humanized 12C1; source: Expi293, purified (MabSelect SuRe, SEC); copies: 2 + 2

Columns and labels:
Assay in all cases: BLI
Conditions in all cases: both partners purified
fHbp m002419 = molecular target: T1, fHbp m002419
fHbp m001199 = molecular target: T2, fHbp m001199
fHbp m001118 = molecular target: T3, fHbp m001118
fHbp m001039 = molecular target: T4, fHbp m001039
fHbp m002336 = molecular target: T5, fHbp m002336
fHbp m001688 = molecular target: T6, fHbp m001688
fHbp m001497 = molecular target: T7, fHbp m001497
fHbp m001037 = molecular target: T8, fHbp m001037
fHbp m001672 = molecular target: T9, fHbp m001672

Binder | Kd (fHbp m002419) [nM] | koff (fHbp m002419) [s⁻¹] | kon (fHbp m002419) [M⁻¹ s⁻¹] | Kd (fHbp m001199) [nM] | koff (fHbp m001199) [s⁻¹] | kon (fHbp m001199) [M⁻¹ s⁻¹] | Kd (fHbp m001118) [nM] | koff (fHbp m001118) [s⁻¹] | kon (fHbp m001118) [M⁻¹ s⁻¹] | Kd (fHbp m001039) [nM] | koff (fHbp m001039) [s⁻¹] | kon (fHbp m001039) [M⁻¹ s⁻¹] | Kd (fHbp m002336) [nM] | koff (fHbp m002336) [s⁻¹] | kon (fHbp m002336) [M⁻¹ s⁻¹] | Kd (fHbp m001688) [nM] | koff (fHbp m001688) [s⁻¹] | kon (fHbp m001688) [M⁻¹ s⁻¹] | Kd (fHbp m001497) [nM] | koff (fHbp m001497) [s⁻¹] | also measured
B1 | 0.191 | 5.3e-05 | 277200 ± 2090 | 0.329 | 0.000132 | 400500 ± 3250 | 0.235 | 8.5e-05 | 361600 ± 2210 | 0.655 | 0.00031 | 473100 ± 1890 | < 0.001 | < 1e-07 | 676300 ± 4120 | 0.937 | 0.000258 | 275900 ± 1570 | 0.563 | 0.000176 | kon (fHbp m001497): 311700 ± 2460 M⁻¹ s⁻¹; Kd (fHbp m001037): 0.349 nM; koff (fHbp m001037): 0.000144 s⁻¹; kon (fHbp m001037): 413700 ± 3870 M⁻¹ s⁻¹; Kd (fHbp m001672): 1 nM; koff (fHbp m001672): 0.00032 s⁻¹; kon (fHbp m001672): 320000 ± 1490 M⁻¹ s⁻¹
B2 | 0.237 | 3.39e-05 | 143000 ± 1520 | 25.1 | 0.0095 | 378900 ± 3300 | 42 | 0.0103 | 245000 ± 3100 | 65.7 | 0.0146 | 223000 ± 3080 | 47.1 | 0.01231 ± 0.000116 | 261000 ± 9540 | 53.8 | 0.0106 | 197000 ± 3980 | 3.06 | 0.000593 | kon (fHbp m001497): 193000 ± 2790 M⁻¹ s⁻¹; Kd (fHbp m001037): 0.893 nM; koff (fHbp m001037): 0.000269 s⁻¹; kon (fHbp m001037): 300900 ± 2650 M⁻¹ s⁻¹; Kd (fHbp m001672): 117 nM; koff (fHbp m001672): 0.01791 ± 0.000106 s⁻¹; kon (fHbp m001672): 154000 ± 3920 M⁻¹ s⁻¹

Source: PMC12319226 (Frontiers in Bioinformatics, 2025)
